Here are results for one substance from article PMC2192373.

The target of this assay is Taxol-stabilized microtubules prepared from pure bovine tubulin (bovine) (UniProt Q6B856). Put plainly: co-sedimentation.

The substance “GST-DmINCENP (full-length Drosophila inner centromere protein fused to GST) (natural protein)” yielded a percent of the added protein that cosediments of 64%.
